Results reported in patent US20210269521A1 (L AND L BIOPHARMA, published 2021).
Read-outs that look alike come from different tables or passages of the source.

What was measured:
[1] = target: T1, human TIM-3 extracellular domain-human IgG1 Fc fusion protein (human, UniProt Q8TDQ0 22-199); assay: ELISA
T1 construct: Made in house or bought (ACROBiosystems TM3-H5258); also called TIM-3-hFc; not shown: human IgG1 Fc

[2] = target: T2, human PD-1 extracellular domain protein expressed in Example 1 (tag not stated) (human, UniProt Q15116 25-170); assay: ELISA, PD-1 coated
T2 construct: extracellular domain; also called PD-1 protein; not shown: human IgG1 Fc or his tag
Protocol: (§1) PD-1 expressed in Example 1 was diluted to a concentration of 1 μg/ml with PBS buffer, pH 7.4, and added to a 96-well microplate (Corning, CLS3590-100EA) at 50 μl per well, thereby incubating in an incubator at 37° C. for 2 hours. After discarding the liquid, a blocking solution of 5% skimmed milk (Shanghai Shenggong Biological Engineering Co., Ltd., A600669-0250) diluted with PBS was added at 200 μl per well, followed by incubating at 37° C. for 3 hours or 4° C. overnight (16-18 hours)) for blocking. Subsequently, the blocking solution was discarded, and the microplate was washed 5 times with PBST buffer (pH 7.4 PBS containing 0.05% tween-20). […] Subsequently, the microplate was washed 5 times with PBST, then 50 μl/well of 1:2500 diluted HRP-labeled secondary antibody (Jackson Immuno Research, 115-035-003) was added, thereby incubating at 37° C. for 1 hour. After washing the microplate 5 times with PBST, 50 μl/well TMB chromogenic substrate (KPL, 52-00-03) was added, then incubated at room temperature for 5-10 min. Finally, 50 μl/well of 1M H₂SO₄ was added to stop the reaction. […] Go microplate reader (ThermoFisher, 51119200) was used to read the absorption value at 450 nm and the EC50 based on the OD value was calculated.
The TIM-3 and PD-1 bispecific antibodies of the present invention were tested for their affinity for TIM-3 and PD-1 using the methods in Example 3 and Example 5, respectively.

[3] = target: T1, human TIM-3 extracellular domain-human …; assay: ELISA; remark: listed apart in the source
Protocol: (§2) Goat-anti-hFc (Jackson, 109-005-008) was diluted to a concentration of 1 μg/ml with PBS buffer (pH 7.4) and added to a 96-well microplate (Corning, CLS3590-100EA) at a volume of 50 μl/well, then incubated in an incubator at 37° C. for 2 hours (Or the antigen TIM-3 was directly used to coat the microplate with a concentration of 0.5 μg/ml, and then the antibody to be tested was directly added). After discarding the liquid, a blocking solution of 5% skimmed milk (skimmed milk powder purchased from Bright) diluted with PBS was added at 200 μl per well, and the microplate was incubated for 2.5 hours at 37° C. or overnight (16-18 hours) at 4° C. for blocking. The blocking solution was discarded, and the microplate was washed 5 times with PBST buffer (PBS with pH 7.4 containing 0.05% tween-20), then 50 μl/well of 0.5 μg/ml TIM-3-hFc (Example 1) was added and incubated for 2 hours in a 37° C. incubator. After incubation, the microplate was washed 6 times with PB ST. 50 μl/well of supernatant (containing testing antibody) or different concentrations of the antibody to be tested was added, and the microplate was incubated at 37° C. for 2 hours and washed 5 times with PBST. 50 μl/well of 1:2500 diluted HRP-labeled secondary antibody (Jackson Immuno Research, 115-035-003) was added to the microplate, incubating at 37° C. for 1 hour. After washing the microplate 5 times with PBST, 50 μl/well TMB chromogenic substrate (KPL, 52-00-03) was added to the microplate, followed by incubating at room temperature for 10-15 min.
(§3) The above-mentioned TIM-3 and PD-1 bispecific antibodies of the present invention were optimized and designed using the methods of Example 2 and Example 5, and their affinity for TIM-3 and PD-1 were tested respectively.

[4] = target: T2, human PD-1 extracellular domain protein …; assay: ELISA, PD-1 coated; remark: listed apart in the source
Protocol: as §1, §3

[5] = target: T2, human PD-1 extracellular domain protein …; assay: blocking ELISA, PD-1 coated, competitor biotin-labeled PD-L1
[6] = target: T1, human TIM-3 extracellular domain-human …; assay: ELISA; remark: listed apart in the source
Protocol: as §2

[7] = target: T2, human PD-1 extracellular domain protein …; assay: ELISA, PD-1 coated; remark: listed apart in the source
Protocol: as §1

[8] = target: T3, human TIM-3 extracellular domain-his tag protein (human, UniProt Q8TDQ0 22-199); assay: SPR Biacore, antibody captured on Protein A, antigen in flow
T3 construct: Made in house or bought (ACROBiosystems TM3-H5229); also called TIM-3-his; Human Tim3-his; not shown: his tag
Protocol: (§4) First, Protein A (Thermo Pierce, Cat #21181) was conjugated to the biosensing chip CMS (Cat. #BR-1005-30, GE), and the chip was activated with the newly prepared 50 mM NHS (N-hydroxysuccinimide) and 200 mM EDC [1-ethyl-3-(3-dimethylaminopropyl) carbodiimide hydrochloride], then 10 μg/ml Protein A prepared with 10 mM NaAC (pH 4.0) was injected. […] The flow rate was 30 μl/min, the binding time was 180 seconds and the dissociation time is 300 seconds. Subsequently, the chip was washed for 30s with 10 mM Glycine-HCl (pH 1.5) at 30 μl/min. The data were fitted with a 1:1 Langmuir model using the software of Biacore T200 evaluation version 3.0 (GE), and the affinity value KD was obtained.

Human PD-1-his = target: T4, Human PD-1-his (human, UniProt Q15116 25-170); assay: as above
T4 construct: extracellular domain; not shown: his tag
Protocol: as §4

[9] = target: T2, human PD-1 extracellular domain protein …; assay: ELISA, EC50 of bispecific over EC50 of the monoclonal control
Protocol: After washing the microplate 5 times with PBST, 50 μl/well TMB chromogenic substrate (KPL, 52-00-03) was added to the microplate, followed by incubating at room temperature for 10-15 min.
as §1

[10] = target: T1, human TIM-3 extracellular domain-human …; assay: as above

Row | Binder | EC50 [1] | EC50 [2] | EC50 [6] | EC50 [7] | Multiple of EC50 variation [9] | Multiple of EC50 variation [10] | further results
1 | bispecific antibody LB129 (bispecific antibody, human IgG4 S228P, kappa) light: DIQMTQSPSSLSASVGDRVTITCRASENIYSYLTWYQQKPGKAPKLLIYNAKTLAEGVPSRFSGSGSGTDFTLTISSLQPEDFATYYCQQHYGTPLTFGQGTKLEIKRTVAAPSVFIFPPEIVLTQSPATLSLSPGERATISCRASKGVSTSGYSYLHWYQQKPGQAPRLLIYLASYLESGVPARFSGSGSGTDFTLTISSLEPEDFATYYCQHSRELPLTFGTGTKVEIKRTVAAPSVFIFPPSDEQLKSGTASVVCLLNNFYPREAKVQWKVDNALQSGNSQESVTEQDSKDSTYSLSSTLTLSKADYEKHKVYACEVTHQGLSSPVTKSFNRGEC heavy: not shown | 0.558 nM | 0.508 nM |  |  |  |  | 
2 | bispecific antibody LB135 (bispecific antibody, human IgG4 S228P, kappa, ab6VL-(G4S)3-ab6VH-(G4S)3-Ba08VH-hIgG4 with Ba08VL-κ) light: EIVLTQSPATLSLSPGERATISCRASKGVSTSGYSYLHWYQQKPGQAPRLLIYLASYLESGVPARFSGSGSGTDFTLTISSLEPEDFATYYCQHSRELPLTFGTGTKVEIKRTVAAPSVFIFPPSDEQLKSGTASVVCLLNNFYPREAKVQWKVDNALQSGNSQESVTEQDSKDSTYSLSSTLTLSKADYEKHKVYACEVTHQGLSSPVTKSFNRGEC heavy: not shown |  |  |  |  |  |  | EC50 [3]: 0.145 nM; EC50 [4]: 0.082 nM; IC50 [5]: 1.49 nM
3 | bispecific antibody LB123 (bispecific antibody, human IgG4 S228P, kappa) light: EIVLTQSPATLSLSPGERATISCRASKGVSTSGYSYLHWYQQKPGQAPRLLIYLASYLESGVPARFSGSGSGTDFTLTISSLEPEDFATYYCQHSRELPLTFGTGTKVEIKRTVAAPSVFIFPPSDEQLKSGTASVVCLLNNFYPREAKVQWKVDNALQSGNSQESVTEQDSKDSTYSLSSTLTLSKADYEKHKVYACEVTHQGLSSPVTKSFNRGEC heavy: not shown | 0.181 nM | 0.216 nM |  |  |  |  | 
4 | bispecific antibody LB247 (bispecific antibody, human IgG4 S228P, kappa) light: EIVLTQSPATLSLSPGERATLSCRASKGVSTSGYSYLHWYQQKPGQAPRLLIYLASYLESGVPARFSGSGSGTDFTLTISSLEPEDFAVYYCQHSRDLPLTFGGGTKVEIKRTVAAPSVFIFPPSDEQLKSGTASVVCLLNNFYPREAKVQWKVDNALQSGNSQESVTEQDSKDSTYSLSSTLTLSKADYEKHKVYACEVTHQGLSSPVTKSFNRGEC heavy: not shown |  |  | 1.86 nM | 0.19 nM | 1.98 ratio | 2.38 ratio | Kd [8]: 8.29 nM; koff [8]: 0.00332 s⁻¹; kon [8]: 401000 M⁻¹ s⁻¹; Kd (Human PD-1-his): 7.34 nM; koff (Human PD-1-his): 0.00259 s⁻¹; kon (Human PD-1-his): 353000 M⁻¹ s⁻¹
5 | bispecific antibody LB124 (bispecific antibody, human IgG4 S228P, kappa) light: EIVLTQSPATLSLSPGERATISCRASKGVSTSGYSYLHWYQQKPGQAPRLLIYLASYLESGVPARFSGSGSGTDFTLTISSLEPEDFATYYCQHSRELPLTFGTGTKVEIKRTVAAPSVFIFPPSDEQLKSGTASVVCLLNNFYPREAKVQWKVDNALQSGNSQESVTEQDSKDSTYSLSSTLTLSKADYEKHKVYACEVTHQGLSSPVTKSFNRGEC heavy: not shown | 0.438 nM | 0.383 nM |  |  |  |  | 
6 | bispecific antibody LB147 (bispecific antibody, human IgG4 S228P, kappa, Ab32VL-(G4S)3-ab32VH-(G4S)3-PemVL-κ with PemVH-hIgG4) light: DIQMTQSPSSLSASVGDRVTITCRASENIYSYLTWYQQKPGKAPKLLIYNAKTLAEGVPSRFSGSGSGTDFTLTISSLQPEDFATYYCQQHYGTPLTFGQGTKLEIKGGGGSGGGGSGGGGSEVQLVESGGGLVKPGGSLRLSCAASGFTFSDYYMTWVRQAPGKGLEWVSSINYDGRNTYYLDSLKSRFTISRDNAKNSLYLQMNSLRAEDTAVYYCARGYYYYGSSPNYFDYWGQGTLVTVSSGGGGSGGGGSGGGGSEIVLTQSPATLSLSPGERATLSCRASKGVSTSGYSYLHWYQQKPGQAPRLLIYLASYLESGVPARFSGSGSGTDFTLTISSLEPEDFAVYYCQHSRDLPLTFGGGTKVEIKRTVAAPSVFIFPPSDEQLKSGTASVVCLLNNFYPREAKVQWKVDNALQSGNSQESVTEQDSKDSTYSLSSTLTLSKADYEKHKVYACEVTHQGLSSPVTKSFNRGEC heavy: not shown |  |  | 0.62 nM | 0.056 nM | 0.81 ratio | 0.79 ratio | 
7 | bispecific antibody LB246 (bispecific antibody, human IgG4 S228P, kappa) light: DIQMTQSPSSLSASVGDRVTITCHASQGISSNIGWLQQKPGKAFKGLIYQGSNLEDGVPSRFSGSGSGADYTLTISSLQPEDFATYYCVQFAQFPPTFGQGTKLEIKGGGGSGGGGSGGGGSEVQLVESGGGLVKPGGSLRLSCAASGFTFSDYYMAWVRQAPGKGLEWVANINYDGSNTYYLDSLKSRFTISRDNAKNSLYLQMNSLRAEDTAVYYCARGLYYYGGNYFAYWGQGTLVTVSSGGGGSGGGGSGGGGSEIVLTQSPATLSLSPGERATLSCRASKGVSTSGYSYLHWYQQKPGQAPRLLIYLASYLESGVPARFSGSGSGTDFTLTISSLEPEDFAVYYCQHSRDLPLTFGGGTKVEIKRTVAAPSVFIFPPSDEQLKSGTASVVCLLNNFYPREAKVQWKVDNALQSGNSQESVTEQDSKDSTYSLSSTLTLSKADYEKHKVYACEVTHQGLSSPVTKSFNRGECGGGGSGGGGSGGGGSEVQLVESGGGLVKPGGSLRLSCAASGFTFSDYYMAWVRQAPGKGLEWVANINYDGSNTYYLDSLKSRFTISRDNAKNSLYLQMNSLRAEDTAVYYCARGLYYYGGNYFAYWGQGTLVTVSSGGGGSGGGGSGGGGSDIQMTQSPSSLSASVGDRVTITCHASQGISSNIGWLQQKPGKAFKGLIYQGSNLEDGVPSRFSGSGSGADYTLTISSLQPEDFATYYCVQFAQFPPTFGQGTKLEIK heavy: not shown |  |  | 2.05 nM | 5.51 nM | 21 ratio | 12.9 ratio | 
8 | bispecific antibody LB127 (bispecific antibody, human IgG4 S228P, kappa) light: DIQMTQSPSSLSASVGDRVTITCHASQGISSNIGWLQQKPGKAFKGLIYQGSNLEDGVPSRFSGSGSGADYTLTISSLQPEDFATYYCVQFAQFPPTFGQGTKLEIKRTVAAPSVFIFPPEIVLTQSPATLSLSPGERATISCRASKGVSTSGYSYLHWYQQKPGQAPRLLIYLASYLESGVPARFSGSGSGTDFTLTISSLEPEDFATYYCQHSRELPLTFGTGTKVEIKRTVAAPSVFIFPPSDEQLKSGTASVVCLLNNFYPREAKVQWKVDNALQSGNSQESVTEQDSKDSTYSLSSTLTLSKADYEKHKVYACEVTHQGLSSPVTKSFNRGEC heavy: not shown | 0.325 nM | 0.423 nM |  |  |  |  | 
